Measurements published in patent US20200199244A1 (published 2020).
Substitutions are numbered along the chain they refer to. Several values for one entry are separate records, joined by “and”; a condition that tells them apart may be missing. Equal values may be shown once.

T1: Macaca fascicularis CD40 (Macaca fascicularis (cynomolgus monkey), UniProt P25942 21-277 (human entry))
T1 chain: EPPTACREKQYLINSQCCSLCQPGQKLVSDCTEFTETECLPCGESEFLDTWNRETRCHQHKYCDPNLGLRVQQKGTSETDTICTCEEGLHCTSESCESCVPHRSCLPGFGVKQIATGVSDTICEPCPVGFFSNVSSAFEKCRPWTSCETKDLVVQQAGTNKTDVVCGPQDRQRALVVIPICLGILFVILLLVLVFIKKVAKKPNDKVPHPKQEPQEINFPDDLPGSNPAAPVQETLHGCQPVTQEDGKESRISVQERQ

B1: BMS3h-202 (other)
VH: EVQLLESGGGLVQPGGSLRLSCAASGFTFPTAEMVWVRQAPGKGLEWVSSISASGGSTYYADSVKGRFTISRDNSKNTLYLQMNSLRAEDTAVYYCAKEPVSYVATFDYWGQGTLVTVSS
B2: BMS3h-202-1 (other)
VH: B1 VH with V35L, Q39K
B3: BMS3h-257 (other)
VH: EVQLLESGGGLVQPGGSLRLSCAASGFTFQNYQMAWVRQAPGKGLEWVSTISGTGKNTYYADSVKGRFTISRDNSKNTLYLQMNSLRAEDTAVYYCAKTPQNYFSVRRFDYWGQGTLVTVSS
B4: BMS3h-198 (other)
VH: EVQLLESGGGLVQPGGSLRLSCAASGFTFAGYEMWWVRQAPGKGLERVSAISGSGGSTYYADSVKGRFTISRDDSKNTLYLQMNSLRAEDTAVYYCAKDPYSFDYWGQGTLVTVSS
B5: BMS3h-296 (other)
VH: EVQLLESGGGLVQPGGSLRLSCAASGFTFGAYPMYWVRQAPGKGLEWVSSIHKDGRITYYADSVKGRFTISRDNSKNTLYLQMNSLRAEDTAVYYCAKQGTPVDGFDYWGQGTLVTVSS
B6: BMS3h-287 (other)
VH: EVQLLESGGGLVQPGGSLRLSCAASGFTFTNYRMSWVRQAPGKGLEWVSAIDDLGVSTYYADSVKGRFTISRDNSKNTLYLQMNSLRAEDTAVYYCAKWRLKNSQPTDFDYWGQGTLVTVSS
B7: BMS3h-240 (other)
VH: EVQLLESGGGLVQPGGSLRLSCAASGFTFWVYDMRWVRQAPGKGLEWVSTISATGVHTYYADSVKGRFTISRDNSKNTLYLQMNSLRAEDTAVYYCAKYPPAGRFDYWGQGTLVTVSS
B8: BMS3h-217-1 (other)
VL: NIQMTQSPSSLSASVGDRVTITCRASHFIGTLLTWYQHKPGKAPKLLITYGSLLQSGVPSRFSGSGSGTDFTLTISSLQPEDFATYYCGQGVLWPATFGQGTKVEIKR
B9: BMS3h-217-8 (other)
VL: B8 VL with N1D, T34S
B10: BMS3h-217-23 (other)
VL: B8 VL with N1D, T31S, T34S, H38V, K103T
B11: BMS3h-217-6 (other)
VL: B8 VL with N1D, T34S, H38Q, P44T, A96P
B12: BMS3h-217-15 (other)
VL: B8 VL with N1D, S12Y, A25V, T34S, H38Q, T74S, A96P, R108Q
B13: BMS3h-217-14 (other)
VL: B8 VL with N1D, M4L, T34S, H38Q, P44T, A96P
B14: BMS3h-217-16 (other)
VL: B8 VL with N1D, T34S, H38Q, G41R, A96P
B15: BMS3h-217-2 (other)
VL: B8 VL with N1D, T34S, H38Q, G41R, Q79H, A96P
B16: BMS3h-233 (other)
VH: EVQLLESGGGLVQPGGSLRLSCAASGFTFAHYNMRWVRQAPGKGLEWVSTITKTGFRTYYADSVKGRFTISRDNSKNTLYLQMNSLRAEDTAVYYCAKAGQFDFDYWGQGTLVTVSS
B17: BMS3h-193-25 (other)
VL: DIQMTQSPSSLSASVGDRVTITCRASQTIERRLNWYQQKPGKAPRLLIYLATRLQSGVPSRFSGSGSGTDFTLTISSLQPEDFATYYCHQYESPPLTFGQGTKVEIKR
B18: BMS3h-231 (other)
VH: EVQLLESGGGLVQPGGSLRLSCAASGFTFSAYNMWWARQAPGKGLEWVSWINSTGSRTYYADSVKGRFTISRDNSKNTLYLQMNSLRAEDTAVYYCAKNWHRGRFDYWGQGTLVTVSS
B19: BMS3h-275 (other)
VH: EVQLLESGGGLVQPGGSLRLSCAASGFTFTRYQMGWVRQAPGKGLEWVSVINVWGSSTYYADSVKGRFTISRDNSKNTLYLQMNSLRAEDTAVYYCAKMSGKFAYWGQGTLVTVSS
B20: BMS3h-217-5 (other)
VL: B8 VL with N1D, S10F, G30A, T34S, H38Q, A96P
B21: BMS3h-217-4 (other)
VL: B8 VL with N1D, G30A, T34S, H38Q, A96P
B22: BMS3h-274 (other)
VH: EVQLLESGGGLVQPGGSLRLSCAASGFTFDSYAMGWARQAPGKGLEWVSAIGAKGLSTYYADSVKGRFTISRDNSKNTLYLQMNSLRAEDTAVYYCAKAARGKFDYWGQGTLVTVSS
B23: BMS3h-202 (other)
VH: B1 VH
notes: domain antibody (dAb): single human VH domain
B24: BMS3h-197 (other)
VH: EVQLLESGGGLVQPGGSLRLSCAASGFTFGSAAMDWVRQAPGKGLEWVSSINDMGSNTYYADSVKGRFTISRDNSKNTLYLQMNSLRAEDTAVYYCAKQGGRFDYWGQGTLVTVSS
notes: as for B23
B25: BMS3h-107 (other)
VH: EVQLLESGGGLVQPGGSLRLSCAASGFTFSGYDMQWVRQAPGKGLEWVSTISASGVFTYYADSVKGRFTTSRDNSKNTLYLQMNSLRAEDTAVYYCAKYPNRFALNNFDYWGQGTLVTVSS
notes: as for B23
B26: BMS3h-43 (other)
VH: EVQLLESGGGLVQPGGSLRLSCTASGFTFNMYEMSWVRQAPGKGLEWVSGISRRGFTTYYADSVKGRFTISRDNSKNTLYLQMNSLRAEDTAVYYCAKEPITYAMRYARFDYWGQGTLVTVSS
notes: as for B23
B27: BMS3h-131 (other)
VL: DIQMTQSPSSLSASVGDRVTITCRANSSILWALAWYQQKPGKAPKLLIESSSGLQSGVPSRFSGSGSGTDFTLTISSLQPEDFATYYCVQNAGWPGTFGQGTKVEIKR
notes: domain antibody (dAb): single human V kappa domain
B28: BMS3h-106 (other)
VH: EVQLLESGGGLVQPGGSLRLSCAASGFTFSTYHMQWVRQAPGKGLEWVSMIDADGLGTYYADSVKGRFTISRDNSKNTLYLQMNSLRAEDTAVYYCAKPGPQFGQFDYWGQGTLVTVSS
notes: as for B23

biological target: human CD40 (human, UniProt P25942 21-277); assay: cell-based or functional assay

| hIZCD40L-driven Human B Cell Proliferation EC50 | CHO-hCD40L-driven DC Activation IL-12 EC50 | Binder |
| --- | --- | --- |
| 6400 nM | – | B1 |
| 192 nM | – | B2 |
| 135 nM | 704 nM | B3 |
| 554 nM | – | B4 |
| 306 nM | – | B5 |
| 287 nM | – | B6 |
| > 7000 nM | – | B7 |
| 45 nM | – | B8 |
| 33 nM | – | B9 |
| 16 nM | – | B10 |
| 11 nM | – | B11 |
| 47 nM | – | B12 |
| 26 nM | – | B13 |
| 5 nM | 1120 nM | B14 |
| 8 nM | 335 nM | B15 |
| 184 nM | 1490 nM and > 2000 nM | B16 |
| 303 nM | – | B17 |
| 328 nM | – | B18 |
| 157 nM | – | B19 |

Biological target: T1, Macaca fascicularis CD40
Assay: cell-based or functional assay

| hIZCD40L-driven Cyno B Cell Proliferation EC50 | Binder |
| --- | --- |
| > 7000 nM | B1 |
| > 7000 nM | B2 |
| > 7000 nM | B3 |
| > 7000 nM | B4 |
| > 7000 nM | B5 |
| 918 nM | B6 |
| > 7000 nM | B7 |
| 35 nM | B8 |
| 14 nM | B9 |
| 15 nM | B10 |
| 15 nM | B20 |
| 10 nM | B11 |
| 20 nM | B12 |
| 8 nM | B13 |
| 7 nM | B14 |
| 7 nM | B15 |
| 27 nM | B21 |
| > 7000 nM | B22 |
| > 7000 nM | B16 |
| 2200 nM | B17 |
| > 7000 nM | B18 |
| > 7000 nM | B19 |

biological target: T2, biotinylated human CD40 (BMS) (human, UniProt P25942 21-193, limits assumed, biotinylated (sites not given)); assay: BIAcore SPR, immobilised biotinylated human CD40, 1:1 fit;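 further: dAbs passed as doubling dilutions over CD40 chip at 25 °C in HBS-EP running buffer, 300 s dissociation, traces double-referenced against blank flow cell and buffer injection, global Langmuir fit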
T2 construct: Ligand immobilised on the streptavidin BIAcore chip

| Kd | koff | kon | Binder |
| --- | --- | --- | --- |
| 2000 nM | 0.0035 s⁻¹ | 1700 M⁻¹ s⁻¹ | B23 |
| 180 nM | 0.014 s⁻¹ | 81000 M⁻¹ s⁻¹ | B24 |
| 850 nM | 0.17 s⁻¹ | 200000 M⁻¹ s⁻¹ | B25 |
| 2100 nM | 0.0031 s⁻¹ | 1400 M⁻¹ s⁻¹ | B26 |
| 930 nM | 0.022 s⁻¹ | 24000 M⁻¹ s⁻¹ | B27 |
| 350 nM | 0.046 s⁻¹ | 130000 M⁻¹ s⁻¹ | B28 |
